Results from publication PMC7641752, “A hand-off of DNA between archaeal polymerases allows high-fidelity replication to resume at a discrete intermediate three bases past 8-oxoguanine”.

B1: p22-FAM/t52Und (-1, undamaged) (dsDNA)
DNA 1: GCGAGGCGAGCGCGAGCGATAC
DNA 2: CGTCCAACATGAAGCTTGCACTCGATCGCGGTATCGCTCGCGCTCGCCTCGC
B2: p26-FAM/t528 (+3, 8-oxoG) (dsDNA)
DNA 1: GCGAGGCGAGCGCGAGCGATACCGCG
DNA 2: B1 DNA 2
modifications: 8-oxoguanine at position 30 from 5' of strand 2 (23 from 3' end), written as G
B3: p26-FAM/t52Und (+3, undamaged) (dsDNA)
DNA 1: GCGAGGCGAGCGCGAGCGATACCGCG
DNA 2: B1 DNA 2
B4: p22-FAM/t528 (-1, 8-oxoG) (dsDNA)
DNA 1: GCGAGGCGAGCGCGAGCGATAC
DNA 2: B1 DNA 2
modifications: 8-oxoguanine at position 30 from 5' of strand 2 (23 from 3' end), written as G
B5: PolY (enzyme)
chain: MIVLFVDFDYFYAQVEEVLNPSLKGKPVVVCVFSGRFEDSGAVATANYEARKFGVKAGIPIVEAKKILPNAVYLPMRKEVYQQVSSRIMNLLREYSEKIEIASIDEAYLDISDKVRDYREAYNLGLEIKNKILEKEKITVTVGISKNKVFAKIAADMAKPNGIKVIDDEEVKRLIRELDIADVPGIGNITAEKLKKLGINKLVDTLSIEFDKLKGMIGEAKAKYLISLARDEYNEPIRTRVRKSIGRIVTMKRNSRNLEEIKPYLFRAIEESYYKLDKRIPKAIHVVAVTEDLDIVSRGRTFPHGISKETAYSESVKLLQKILEEDERKIRRIGVRFSKFIEAIGLDKFFDT
B6: PolB1 (enzyme)
chain: MTKQLTLFDIPSSKPAKSEQNTQQSQQSAPVEEKKVVRREWLEEAQENKIYFLLQVDYDGKKGKAVCKLFDKETQKIYALYDNTGHKPYFLVDLEPDKVGKIPKIVRDPSFDHIETVSKIDPYTWNKFKLTKIVVRDPLAVRRLRNDVPKAYEAHIKYFNNYMYDIGLIPGMPYVVKNGKLESVYLSLDEKDVEEIKKAFADSDEMTRQMAVDWLPIFETEIPKIKRVAIDIEVYTPVKGRIPDSQKAEFPIISIALAGSDGLKKVLVLNRNDVNEGSVKLDGISVERFNTEYELLGRFFDILLEYPIVLTFNGDDFDLPYIYFRALKLGYFPEEIPIDVAGKDEAKYLAGLHIDLYKFFFNKAVRNYAFEGKYNEYNLDAVAKALLGTSKVKVDTLISFLDVEKLIEYNFRDAEITLQLTTFNNDLTMKLIVLFSRISRLGIEELTRTEISTWVKNLYYWEHRKRNWLIPLKEEILAKSSNIRTSALIKGKGYKGAVVIDPPAGIFFNITVLDFASLYPSIIRTWNLSYETVDIQQCKKPYEVKDETGEVLHIVCMDRPGITAVITGLLRDFRVKIYKKKAKNPNNSEEQKLLYDVVQRAMKVFINATYGVFGAETFPLYAPAVAESVTALGRYVITSTVKKAREEGLTVLYGDTDSLFLLNPPKNSLENIIKWVKTTFNLDLEVDKTYKFVAFSGLKKNYFGVYQDGKVDIKGMLVKKRNTPEFVKKVFNEVKELMISINSPNDVKEIKRKIVDVVKGSYEKLKNKGYNLDELAFKVMLSKPLDAYKKNTPQHVKAALQLRPFGVNVLPRDIIYYVKVRSKDGVKPVQLAKVTEIDAEKYLEALRSTFEQILRAFGVSWDEIAATMSIDSFFSYPSKGNS

What was measured:
[1] = biological target: T1, PolY (Y-family TLS DNA polymerase) (Saccharolobus/Sulfolobus solfataricus …, UniProt Q97W02 1-352); test: fluorescence anisotropy; Fluorescence anisotropy, 4 nM DNA, room temperature, 90 s incubation, Hill fit, mean of three titrations; binding buffer not stated in the material (as in ref 38); conditions: protein: recombinant, label: 5'-FAM on primer (strand 1), primer-template
T1 sequence: B5 chain

[2] = biological target: T2, PCNA123 (Saccharolobus solfataricus) (UniProt P57766)
T2 sequence 1: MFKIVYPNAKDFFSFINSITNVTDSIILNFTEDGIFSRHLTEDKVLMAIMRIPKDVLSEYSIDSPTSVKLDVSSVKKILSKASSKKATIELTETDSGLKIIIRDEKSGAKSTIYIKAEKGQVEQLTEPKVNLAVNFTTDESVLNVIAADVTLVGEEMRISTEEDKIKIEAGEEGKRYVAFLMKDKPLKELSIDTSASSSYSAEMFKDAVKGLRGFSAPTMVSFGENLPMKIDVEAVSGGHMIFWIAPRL
T2 sequence 2: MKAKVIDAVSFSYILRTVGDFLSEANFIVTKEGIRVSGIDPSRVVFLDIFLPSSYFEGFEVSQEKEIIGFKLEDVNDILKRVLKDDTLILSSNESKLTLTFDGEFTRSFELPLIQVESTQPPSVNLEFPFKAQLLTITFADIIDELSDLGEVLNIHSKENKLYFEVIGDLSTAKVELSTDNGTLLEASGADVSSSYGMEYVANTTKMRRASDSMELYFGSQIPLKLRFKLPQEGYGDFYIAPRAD
T2 sequence 3: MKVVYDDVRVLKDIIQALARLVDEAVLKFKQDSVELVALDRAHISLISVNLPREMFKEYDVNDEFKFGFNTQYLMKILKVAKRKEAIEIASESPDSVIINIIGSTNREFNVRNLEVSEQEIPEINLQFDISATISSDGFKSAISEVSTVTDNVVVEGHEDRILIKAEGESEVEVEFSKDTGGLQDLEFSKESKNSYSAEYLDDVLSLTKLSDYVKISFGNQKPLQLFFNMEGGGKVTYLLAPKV

[3] = biological target: T2, PCNA123 (Saccharolobus solfataricus); remark: listed apart in the source
[4] = 5' overhang 30 nt on template (strand 2)
[5] = 5' overhang 26 nt on template (strand 2)

Row | Binder | Kd [1, 4] | Kd [1, 5] | also measured
1 | B1 | 16.1 ± 0.4 nM | – | –
2 | B2 | – | 13 ± 0.4 nM | –
3 | B3 | – | 31.2 ± 3.5 nM | –
4 | B4 | 25.9 ± 8.2 nM | – | –
5 | B5 | – | – | observed rate constant (kobs) of 8-oxoG lesion bypass from primer p22 (-1), Scheme ii: PolY added at initiation to DNA pre-loaded with PCNA123 and RFC; rapid quench, 40°C [2]: 0.22 s⁻¹
6 | B6 | – | – | observed rate constant (kobs) of extension from primer p26 (+3), Scheme vi: PolB1 added at initiation to DNA pre-loaded with PCNA123 and RFC; rapid quench, 40°C [3]: 2.1 s⁻¹
